# Target: T1, MASP-2 CCP1-CCP2-SP fragment (human, UniProt O00187 291-444; O00187 445-686)
# T1 construct: range 291-444;range 445-686; also called MASP-2γB; MASP-2 catalytic fragment
# Test: SDS-stable complex formation of 125I-labelled MASP fragment with C1-inhibitor; irreversible inhibition preceded by reversible complex formation, non-linear regression
# Description: To assess the rate of SDS stable complex formation between the MASP-1 and MASP-2 CCP1-CCP2-SP fragments and C1-inhibitor, the ¹²⁵I-labelled MASP fragments at concentrations ranging between 30-100 nM were incubated with 100-350 nM C1-inhibitor at 37° C. in 20 mM HEPES, 140 mM NaCl, pH 7.4 for 40 minutes. Typically 11-13 samples were taken at varying time periods. […] The samples were further incubated at 37° C. for 30 minutes and run on reducing SDS-PAGE. Cleavages rates were visualized by means of autoradiography and the diminution of the reacted MASP chain was quantified using a GEL DOC 1000 instrument and Molecular Analyst Software for densitometric calculations (Bio-Rad, Hercules, Calif., USA). The kinetic constants were calculated assuming irreversible inhibition proceeded by reversible enzyme-inhibitor complex formation. Using steady-state approximation and neglecting the starting enzyme concentration compared to the starting inhibitor concentration ([I₀]>>[E₀]) the data was regressed on the following equation using non-linear regression methods: [E]=[E₀]exp(−kobst); kobs=k₂[I₀]/(Kᵢ+[I₀]), where kobs is the observed pseudo-first order rate of reaction, k₂ is the rate of irreversible enzyme-inhibitor complex formation and Kᵢ is the inhibitory constant.
# T1 sequence (O00187 291-444 limits assumed, form in doubt, chain 1 of 2): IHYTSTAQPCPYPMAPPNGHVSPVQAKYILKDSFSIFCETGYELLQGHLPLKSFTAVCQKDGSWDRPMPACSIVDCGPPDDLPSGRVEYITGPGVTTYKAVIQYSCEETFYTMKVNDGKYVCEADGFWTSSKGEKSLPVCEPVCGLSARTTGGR
# T1 sequence (O00187 445-686 limits assumed, form in doubt, chain 2 of 2): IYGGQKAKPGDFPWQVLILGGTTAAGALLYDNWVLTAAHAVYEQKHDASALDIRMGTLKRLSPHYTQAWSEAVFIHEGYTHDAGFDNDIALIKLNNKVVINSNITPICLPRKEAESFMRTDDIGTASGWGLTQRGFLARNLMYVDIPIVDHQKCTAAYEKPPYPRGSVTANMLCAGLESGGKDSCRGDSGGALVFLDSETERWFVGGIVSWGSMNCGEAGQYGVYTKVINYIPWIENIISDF
binder,measurement,value
"C1-inhibitor (other, human, UniProt P05155 23-500, looked up, mature; Serum-purified, glycosylated; molecular weight of 71.1 kDa used) NPNATSSSSQDPESLQDRGEGKVATTVISKMLFVEPILEVSSLPTTNSTTNSATKITANTTDEPTTQPTTEPTTQPTIQPTQPTTQLPTDSPTQPTTGSFCPGPVTLCSDLESHSTEAVLGDALVDFSLKLYHAFSAMKKVETNMAFSPFSIASLLTQVLLGAGENTKTNLESILSYPKDFTCVHQALKGFTTKGVTSVSQIFHSPDLAIRDTFVNASRTLYSSSPRVLSNNSDANLELINTWVAKNTNNKISRLLDSLPSDTRLVLLNAIYLSAKWKTTFDPKKTRMEPFHFKNSVIKVPMMNSKKYPVAHFIDQTLKAKVGQLQLSHNLSLVILVPQNLKHRLEDMEQALSPSVFKAIMEKLEMSKFQPTLLTLPRIKVTTSQDMLSIMEKLEFFDFSYDLNLCGLTEDPDLQVSAMQHQTVLELTETGVEAAAASAISVARTLLVFEVQQPFLFVLWDQQHKFPVFMGRVYDPRA",Ki,8.8 nM

# Source: patent US20090042248A1 (TARGETEX KFT, published 2009)
